Source: US20050049403A1 (CAMBRIDGE ANTIBODY TECHNOLOGY, published 2005)

Tests used:
[1] = target: T1, recombinant human TGFβ2 (human, UniProt P61812 303-414); test: cell-based or functional assay
T1 sequence (looked up): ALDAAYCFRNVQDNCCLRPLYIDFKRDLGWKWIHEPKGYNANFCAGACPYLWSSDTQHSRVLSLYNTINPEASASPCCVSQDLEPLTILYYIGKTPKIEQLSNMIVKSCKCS

[2] = target: irrelevant peptide …; test: BIACore, peptide at 745 µM (1 mg/ml) over immobilised 6B1 IgG4 (5000RU)
[3] = target: T2, chicken egg white trypsin inhibitor (chicken, UniProt P01005 25-210); test: ELISA, antigen coated at 10 µg/ml, anti-human Fc alkaline phosphatase conjugate, OD405 nm [a]
T2 sequence (looked up): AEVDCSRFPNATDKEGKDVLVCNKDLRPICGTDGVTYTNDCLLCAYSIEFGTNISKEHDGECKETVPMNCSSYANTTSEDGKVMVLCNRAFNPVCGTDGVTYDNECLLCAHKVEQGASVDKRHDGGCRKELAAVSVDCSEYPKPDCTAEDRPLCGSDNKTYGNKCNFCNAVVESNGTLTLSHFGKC
Description: (§1) For both FIG. 13(a) and FIG. 13(b), antigens 1 to 15 were used for coating the plate at a concentration of 10 μg/ml in PBS. The TGFbetas were coated at 0.2 μg/ml in PBS. Coating was performed at 4° C. overnight. […] of each antigen was used per well and duplicates of each antigen for each IgG to be tested. IgG samples were incubated with the coated antigens at 37° C. for 2 hours after blocking with 2%. marvel-PBS. The labelled second antibody was a mouse anti-human Fc1 alkaline phosphatase conjugated and the substrate used to detect bound second antibody was PNPP at 1 mg/ml with the absorbance read at 405 nm.

[4] = target: T3, ovalbumin (UniProt P01012 2-386); test: as above
T3 sequence (looked up): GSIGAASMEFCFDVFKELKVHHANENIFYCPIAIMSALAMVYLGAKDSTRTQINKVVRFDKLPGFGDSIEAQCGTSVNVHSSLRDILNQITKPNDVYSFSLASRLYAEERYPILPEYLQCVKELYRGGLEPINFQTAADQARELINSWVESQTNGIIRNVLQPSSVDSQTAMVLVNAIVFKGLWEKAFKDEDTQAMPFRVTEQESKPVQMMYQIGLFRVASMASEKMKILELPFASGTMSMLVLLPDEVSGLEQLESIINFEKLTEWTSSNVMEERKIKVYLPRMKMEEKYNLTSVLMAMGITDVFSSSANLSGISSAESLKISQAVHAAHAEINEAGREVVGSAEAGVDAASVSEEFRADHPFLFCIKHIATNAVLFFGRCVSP
Description: as §1

[5] = target: T4, bovine serum albumin (bovine, UniProt P02769 25-607); test: as above
T4 construct: also called BSA
Description: as §1

[6] = target: T5, human lymphotoxin (TNFβ) (human, UniProt P01374 35-205, limits assumed); test: as above
T5 sequence (looked up): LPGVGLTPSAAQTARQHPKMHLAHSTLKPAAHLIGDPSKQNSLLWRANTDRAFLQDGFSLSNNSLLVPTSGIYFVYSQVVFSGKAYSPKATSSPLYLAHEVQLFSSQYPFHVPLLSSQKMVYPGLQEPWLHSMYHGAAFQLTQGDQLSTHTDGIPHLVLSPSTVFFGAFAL
Description: as §1

[7] = target: oxazolone-bovine serum albumin (bovine, UniProt P02769 25-607, oxazolone hapten coupled, sites not stated); test: as above
Description: as §1

[8] = target: human serum albumin (human, UniProt P02768 25-609); test: as above
Description: as §1

[9] = target: human insulin (human, UniProt P01308 25-54; P01308 90-110, limits assumed); test: as above
Description: as §1

[10] = target: hen egg lysozyme (hen, UniProt P00698 19-147); test: as above
Description: as §1

[11] = target: T6, recombinant human TGFβ1 (human, UniProt P01137 279-390); test: A549 cell radioreceptor assay (nM IgG); A549 cell radioreceptor assay; no inhibition up to 400 nM IgG
T6 construct: mature; also called TGFbeta1
Description: (§2) Aliqouts of ¹²⁵I-TGFβ1 or TGFβ2 (70-90 TBq/mmol; Amersham International) at 20 pM are preincubated with antibody in binding medium at room temperature for 1 h. Duplicate samples of 0.5 ml of TGFβ/antibody mixtures are then added to the cell monlayers and are incubated at 37° C. for 1-2 h. Control wells contain TGFβ only. Unbound TGFβ is removed by washing 4 times with Hank's balanced salt solution containing 0.1% BSA. Cells are solubilised in 0.8 ml 25 mM Tris HCl pH 7.5, 10% glycerol, 1% Triton X-100 at room temperature for 20 min. The contents of each well are removed and ¹²⁵I measured in a gamma counter.
(§3) The ability of 6B1 IgG4 to inhibit binding of TGFβ isoforms to receptors was measured in a radioreceptor assay as described in example 4.

[12] = target: T1, recombinant human TGFβ2; test: A549 cell radioreceptor assay (nM IgG)
Description: as §2, §3

T4 sequence (P02769 25-607 limits assumed): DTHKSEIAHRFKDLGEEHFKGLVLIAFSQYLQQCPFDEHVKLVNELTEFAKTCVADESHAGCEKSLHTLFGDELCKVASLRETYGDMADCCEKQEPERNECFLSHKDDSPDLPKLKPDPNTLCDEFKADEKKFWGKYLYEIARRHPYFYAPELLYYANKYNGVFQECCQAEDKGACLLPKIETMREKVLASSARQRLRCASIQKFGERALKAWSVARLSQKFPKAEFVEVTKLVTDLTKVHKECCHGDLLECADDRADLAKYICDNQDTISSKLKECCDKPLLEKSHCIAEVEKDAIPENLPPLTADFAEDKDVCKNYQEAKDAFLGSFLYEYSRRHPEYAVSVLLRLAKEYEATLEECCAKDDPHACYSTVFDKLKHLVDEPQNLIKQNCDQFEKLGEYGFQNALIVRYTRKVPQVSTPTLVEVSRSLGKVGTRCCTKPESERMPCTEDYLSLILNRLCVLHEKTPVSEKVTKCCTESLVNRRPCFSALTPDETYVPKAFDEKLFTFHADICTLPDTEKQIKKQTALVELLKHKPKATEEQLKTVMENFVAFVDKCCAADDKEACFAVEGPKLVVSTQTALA
oxazolone-bovine serum albumin, sequence (P02769 25-607 limits assumed): as above
human insulin, sequence (P01308 25-54 limits assumed, chain 1 of 2): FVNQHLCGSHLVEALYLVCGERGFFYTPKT
human insulin, sequence (P01308 90-110 limits assumed, chain 2 of 2): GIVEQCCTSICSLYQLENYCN
human serum albumin, sequence (P02768 25-609 limits assumed): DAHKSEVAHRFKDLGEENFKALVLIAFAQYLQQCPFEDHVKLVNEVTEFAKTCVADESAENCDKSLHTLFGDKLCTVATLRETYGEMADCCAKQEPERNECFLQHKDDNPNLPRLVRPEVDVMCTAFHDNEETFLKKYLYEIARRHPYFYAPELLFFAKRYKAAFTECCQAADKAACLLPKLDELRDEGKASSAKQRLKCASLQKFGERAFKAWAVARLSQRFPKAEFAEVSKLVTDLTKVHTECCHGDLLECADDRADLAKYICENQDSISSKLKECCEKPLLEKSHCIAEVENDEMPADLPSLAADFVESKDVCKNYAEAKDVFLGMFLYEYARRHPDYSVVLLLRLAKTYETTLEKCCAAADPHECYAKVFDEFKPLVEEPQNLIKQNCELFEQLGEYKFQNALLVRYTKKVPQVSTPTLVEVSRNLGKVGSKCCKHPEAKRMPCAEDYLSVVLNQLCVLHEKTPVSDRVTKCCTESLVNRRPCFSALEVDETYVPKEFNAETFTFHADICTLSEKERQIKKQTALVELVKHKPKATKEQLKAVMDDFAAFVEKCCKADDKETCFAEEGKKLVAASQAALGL
hen egg lysozyme, sequence (P00698 19-147): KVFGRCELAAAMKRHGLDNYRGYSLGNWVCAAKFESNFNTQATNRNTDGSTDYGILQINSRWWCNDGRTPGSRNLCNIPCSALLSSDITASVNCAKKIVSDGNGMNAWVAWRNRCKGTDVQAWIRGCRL
T6 sequence (P01137 279-390 limits assumed): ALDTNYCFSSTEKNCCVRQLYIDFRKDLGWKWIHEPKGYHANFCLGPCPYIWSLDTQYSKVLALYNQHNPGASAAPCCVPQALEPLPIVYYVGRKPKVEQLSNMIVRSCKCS

B1: 6B1 IgG4 (antibody, V domains shown)
VH: EVQLVESGGGVVQPGRSLRLSCAASGFTFSSYGMHWVRQAPGKGLEWVAVIWYDGSNKYYADSVKGRFTISRDNSKNTLYLQMDSLRAEDTAVYYCGRTLESSLWGQGTLVTVSS
VL: SSELTQDPAVSVALGQTVRITCQGDSLRSYYASWYQQKPGQAPVLVIYGKNNRPSGIPDRFSGSSSGNTASLTITGAQAEDEADYYCNSRDSSSTHRGVFGGGTKLTVLG
notes: Whole antibody: human gamma 4 and human lambda constant regions; FITC-labelled in the human tissue study; also called antibody 6B1
B1 was tested, and the “I.C.50 in TF1 assay (neutralisation of TGFβ2 inhibition of TF1 cell proliferation)” value [1] was 11 nM, the amount of binding to 6B1 IgG4 surface, RU [2] was 60.9 RU and the binding result [3] was “no binding”. B1: no binding [4]; no binding [5]; no binding [6]. B1: no binding [7]; no binding [8]; no binding [9]. The binding result [10] was “no binding”, the IC50 [11] was greater than 400 nM and the IC50 [12] was 0.05 nM.
